# Results taken from the supplement of paper PMC9732359.
# ± gives the uncertainty stated by the source.
# Assay: protein stability index of a GFP-peptide fusion (yeast GPS) (PSI 1-4); higher = more stable; sorted into four equal gates, so the index is relative within each strain
# Settings: pdr5∆
# Outline: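 Tiled yeast protein peptides of 17 residues were each joined downstream of GFP, on plasmids that also express Cherry. The pooled library was maintained in yeast, and mid-log cultures in leucine-free medium were sorted into four equal gates on the GFP/Cherry ratio. Plasmids from every gate were amplified by PCR and sequenced on Illumina, with barcodes linking reads to strains. The protein stability index of a peptide is its gate-number-weighted read frequency summed over the gates.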
row,Sequence,protein stability index
1,KRQLIKERNQKFQLQNQ [YIL149C/MLP2],3.17 ± 0.11
2,KRSFSSTLKSFFTNPNK [YOR098C/NUP1],2.31 ± 0.04

# Same assay, conditions: san1∆
row,Sequence,protein stability index
1,KITDKEDLLHYIEEKHP [POP4],3.23 ± 0.057
2,KKAAEEAGVTDVKVSIS [FAS2],2.23 ± 0.24
3,KKCPFTGLVSIRGKILT [RPS11A],1.47 ± 0.12
4,KKECALLISYGVSIENE [SRB4],1.96 ± 0.24
5,KKEYIELDILNKGWKLQ [SRB4],2.76 ± 0.089
6,KKGVRVTLDITTLTIMR [RPT4],2.23 ± 0.079
7,KKINRRNETSVDEEDEN [YCG1],2.79 ± 0.14
8,KKKGLDENTSGKISKPR [PRP28],3.52 ± 0.065
9,KKLDYVLALKVEDFLER [RPS9A],2.08 ± 0.067
10,KKLNKNKKLIKKLSKKY [RPL1A],3.1 ± 0.12
11,KKNIQKAKSNQTQREKA [IRR1],2.77 ± 0.11
12,KKPSPQTIPIQIYGFEG [YGR119C/NUP57],2.49 ± 0.15
13,KKRSHHGKASRQQYYSG [SNF6],2.92 ± 0.065
14,KKSKIQLLDIAEFKKEN [LIN1],2.44 ± 0.16
15,KKSKLISLYLLNLLSQN [RPN12],1.26 ± 0.094
16,KKSRSNLSQENDNEGKH [YAR002W/NUP60],2.91 ± 0.049
17,KKVSRRNARATRAAKIA [RPL13A],2.39 ± 0.077
18,KKYLKKNQLRDWIRFVS [RPL22A],1.2 ± 0.14
19,KLFVSKEHAPYTDELEE [FAS2],1.56 ± 0.28
20,KLHFKDTKPFLNKDSTN [NUT1],1.99 ± 0.071
21,KLIKFETRNEDDVVVLT [FAS1],3.07 ± 0.063
22,KLITTYISLLKLQGLYE [YDL116W/NUP84],1.66 ± 0.072
23,KLLATSTKIIMLLLNDS [SRB8],1.48 ± 0.16

row,Sequence,protein stability index
1,KLLGVDMQSSVDTGLQP [YLR018C/POM34],3.1 ± 0.062
2,KLPLLNESLIPLINLAL [YML103C/NUP188],1.73 ± 0.079
3,KLQLGQLYESGNPVNDA [COR1],3.17 ± 0.065
4,KLRAARAKAMKFADGFL [RPS3],2.44 ± 0.29
5,KLSQMILDKIFYGVLDQ [RPN6],2.92 ± 0.062
6,KLSQYVQEMALGGPITK [FAS2],2.96 ± 0.049
7,KLTAERANLRKYREGQV [POP1],2.8 ± 0.073
8,KLTILQEGIEAIATTVI [RET1],2.51 ± 0.082
9,KLVRDSFTSATERHIQV [PRE7],3.17 ± 0.055
10,KLYTKELSVTGSAINHH [YMR129W/POM152],1.46 ± 0.23
11,KMFQDIRLSKILEDDFA [CDC53],2.62 ± 0.072
12,KNAGLGFKTPKTAIEGS [RPS11A],3.11 ± 0.035
13,KNDDNSCRNPEHTDVID [YIL149C/MLP2],2.98 ± 0.093
14,KNDNGGKMNNEVSTSTS [SWI3],3.06 ± 0.053
15,KNFSPTKRVEKPQLKFK [RRP6],2.39 ± 0.1
16,KNGKIYLKHNSIAEEIP [RET1],2.61 ± 0.074
17,KNIQSKDSYINANTIET [FAS2],2.9 ± 0.038
18,KNKKIEVYTKTIEVLDE [POP7],2.45 ± 0.15
19,KNKYLKDVLAQTSVTTN [SWP82],2.71 ± 0.098
20,KNLSLLAEEVVDNIVNK [SRP68],3.16 ± 0.066
21,KNQHRAASWYGSFNEMK [RMP1],3.12 ± 0.042
22,KNTLLERLKQLTPNEIK [SWP82],2.71 ± 0.046
23,KNYTTETDNEMNGNGKP [SIR3],3.48 ± 0.043

row,Sequence,protein stability index
1,KPANASHAIRLGNGVAC [RGR1],2.52 ± 0.058
2,KPDSDIVALSSEEINQY [PRE6],3.185 ± 0.03
3,KPEIDENGTLLVPPPRT [RPR2],2.99 ± 0.036
4,KPELRKKVMPAIVVRQA [RPL23A],2.61 ± 0.16
5,KPGIPRGNTKIHSMNEN [SIR3],3.32 ± 0.098
6,KPIYKDTRFGGRMDMTR [SSN2],3.33 ± 0.068
7,KPKKPKGRAYKRLLYTR [RPS30A],3.02 ± 0.086
8,KPSPIDSGIGSNGSGIV [CSL4],2.94 ± 0.04
9,KPSRTSRQVQKRPRSRT [RPS7A],2.68 ± 0.061
10,KPTVILKLLKENIIQME [FAS1],1.24 ± 0.11
11,KQENSTLLKKANRDDVK [RPC82],3.16 ± 0.22
12,KQINEARDEILPLRLQF [PGD1],2.4 ± 0.074
13,KQLEKRDYQRINKNSKI [POP4],2.02 ± 0.11
14,KRAFENFKKFNERRKDL [SMC3],3.51 ± 0.068
15,KRAKEFITTLLKSLYSF [SIN4],1.83 ± 0.07
16,KREIQEALSEKPTREPT [RPC53],3.05 ± 0.11
17,KRFKRKDNAKISNNLAL [SRP68],2.26 ± 0.079
18,KRFQVLYPCYFDINRSH [SEC65],1.88 ± 0.071
19,KRKEELVSTLTTGISST [SMC2],2.61 ± 0.086
20,KRKPAKSSSNRSCVSNS [RPN4],3.08 ± 0.065
21,KRPRSRTLTAVHDKILE [RPS7A],2.25 ± 0.064
22,KRQLIKERNQKFQLQNQ [YIL149C/MLP2],2.99 ± 0.059
23,KRSFSSTLKSFFTNPNK [YOR098C/NUP1],2.32 ± 0.052

# Same assay, conditions: ubr1∆
row,Sequence,protein stability index
1,KITDKEDLLHYIEEKHP [POP4],3.24 ± 0.076
2,KKAAEEAGVTDVKVSIS [FAS2],1.18 ± 0.1
3,KKCPFTGLVSIRGKILT [RPS11A],1.88 ± 0.055
4,KKECALLISYGVSIENE [SRB4],2.03 ± 0.16
5,KKEYIELDILNKGWKLQ [SRB4],2.94 ± 0.16
6,KKGVRVTLDITTLTIMR [RPT4],2.56 ± 0.082
7,KKINRRNETSVDEEDEN [YCG1],3.31 ± 0.12
8,KKKGLDENTSGKISKPR [PRP28],3.45 ± 0.099
9,KKLDYVLALKVEDFLER [RPS9A],2.72 ± 0.072
10,KKLNKNKKLIKKLSKKY [RPL1A],3.52 ± 0.22
11,KKNIQKAKSNQTQREKA [IRR1],2.73 ± 0.066
12,KKPSPQTIPIQIYGFEG [YGR119C/NUP57],3.08 ± 0.17
13,KKRSHHGKASRQQYYSG [SNF6],2.98 ± 0.079
14,KKSKIQLLDIAEFKKEN [LIN1],2.99 ± 0.11
15,KKSKLISLYLLNLLSQN [RPN12],1.84 ± 0.046
16,KKSRSNLSQENDNEGKH [YAR002W/NUP60],3.11 ± 0.044
17,KKVSRRNARATRAAKIA [RPL13A],2.77 ± 0.045
18,KKYLKKNQLRDWIRFVS [RPL22A],1.12 ± 0.09
19,KLFVSKEHAPYTDELEE [FAS2],1.83 ± 0.15
20,KLHFKDTKPFLNKDSTN [NUT1],2.6 ± 0.041
21,KLIIHRKNDNANDHDES [SMC3],1.36 ± 0.11
22,KLIKFETRNEDDVVVLT [FAS1],3.12 ± 0.16
23,KLITTYISLLKLQGLYE [YDL116W/NUP84],1.72 ± 0.052
24,KLKYHDFLRKATAFNKT [RPL16A],1.22 ± 0.15
25,KLLATSTKIIMLLLNDS [SRB8],1.23 ± 0.071
26,KLLGVDMQSSVDTGLQP [YLR018C/POM34],3.14 ± 0.053

row,Sequence,protein stability index
1,KLPLLNESLIPLINLAL [YML103C/NUP188],1.98 ± 0.054
2,KLQLGQLYESGNPVNDA [COR1],3.01 ± 0.077
3,KLRAARAKAMKFADGFL [RPS3],3.16 ± 0.065
4,KLSKSATESIKNRRRIH [SMC1],2.62 ± 0.25
5,KLSQMILDKIFYGVLDQ [RPN6],2.86 ± 0.11
6,KLSQYVQEMALGGPITK [FAS2],2.53 ± 0.031
7,KLTAERANLRKYREGQV [POP1],3.01 ± 0.055
8,KLTILQEGIEAIATTVI [RET1],2.78 ± 0.037
9,KLVRDSFTSATERHIQV [PRE7],2.37 ± 0.057
10,KLYTKELSVTGSAINHH [YMR129W/POM152],1.49 ± 0.06
11,KMFQDIRLSKILEDDFA [CDC53],2.93 ± 0.063
12,KMWFDVQLRYGDYDSHD [PRP8],3.06 ± 0.2
13,KNAAESSYMGKHWTEKS [PRP28],3.46 ± 0.11
14,KNAGLGFKTPKTAIEGS [RPS11A],3.13 ± 0.041
15,KNDDNSCRNPEHTDVID [YIL149C/MLP2],2.97 ± 0.086
16,KNDNGGKMNNEVSTSTS [SWI3],2.65 ± 0.075
17,KNFSPTKRVEKPQLKFK [RRP6],3.21 ± 0.075
18,KNGKIYLKHNSIAEEIP [RET1],2.52 ± 0.037
19,KNIHISKRSKIDIINKL [YML103C/NUP188],1.49 ± 0.14
20,KNIQSKDSYINANTIET [FAS2],2.94 ± 0.052
21,KNKKIEVYTKTIEVLDE [POP7],2.61 ± 0.14
22,KNKYLKDVLAQTSVTTN [SWP82],2.37 ± 0.044
23,KNLSLLAEEVVDNIVNK [SRP68],3.01 ± 0.089
24,KNQHRAASWYGSFNEMK [RMP1],3.18 ± 0.038
25,KNRSTIFWGIRLAKSTE [BRR2],2.95 ± 0.17
26,KNTLLERLKQLTPNEIK [SWP82],2.68 ± 0.054

row,Sequence,protein stability index
1,KNYTTETDNEMNGNGKP [SIR3],3.22 ± 0.055
2,KPANASHAIRLGNGVAC [RGR1],3.01 ± 0.051
3,KPDSDIVALSSEEINQY [PRE6],3.17 ± 0.034
4,KPEIDENGTLLVPPPRT [RPR2],2.987 ± 0.029
5,KPELRKKVMPAIVVRQA [RPL23A],2.97 ± 0.063
6,KPGIPRGNTKIHSMNEN [SIR3],3.23 ± 0.12
7,KPIYKDTRFGGRMDMTR [SSN2],3.4 ± 0.14
8,KPKKPKGRAYKRLLYTR [RPS30A],2.99 ± 0.055
9,KPSPIDSGIGSNGSGIV [CSL4],3.1 ± 0.046
10,KPSRTSRQVQKRPRSRT [RPS7A],1.95 ± 0.14
11,KPTVILKLLKENIIQME [FAS1],1.1 ± 0.11
12,KQENSTLLKKANRDDVK [RPC82],3.12 ± 0.09
13,KQINEARDEILPLRLQF [PGD1],2.77 ± 0.052
14,KQLEKRDYQRINKNSKI [POP4],2.69 ± 0.11
15,KRAFENFKKFNERRKDL [SMC3],3.15 ± 0.075
16,KRAKEFITTLLKSLYSF [SIN4],1.87 ± 0.032
17,KREIQEALSEKPTREPT [RPC53],3.15 ± 0.1
18,KRELLKRYRLKESQLPR [RPB5],3.58 ± 0.14
19,KRFKRKDNAKISNNLAL [SRP68],1.95 ± 0.045
20,KRFQVLYPCYFDINRSH [SEC65],2.06 ± 0.039
21,KRKEELVSTLTTGISST [SMC2],2.11 ± 0.045
22,KRKPAKSSSNRSCVSNS [RPN4],2.98 ± 0.048
23,KRPRSRTLTAVHDKILE [RPS7A],1.88 ± 0.041
24,KRQLIKERNQKFQLQNQ [YIL149C/MLP2],2.78 ± 0.05
25,KRSFSSTLKSFFTNPNK [YOR098C/NUP1],2.28 ± 0.033
